Measurements as given in publication PMC11179147 (Nature, 2023).

Key:
[1] = target: full-length WT METTL1, unlabeled (without WDR4) (human, UniProt Q9UBP6 1-276); assay: NMR titration
[2] = target: full-length R109A/K111A METTL1, unlabeled (human, UniProt Q9UBP6 1-276, R109A | K111A); assay: NMR titration

Binder | binding result [1] | binding result [2]
METTL1 1-75 (N-terminal segment of METTL1), isotope-labelled (domain or fragment, human, UniProt Q9UBP6 1-75, looked up) MAAETRNVAGAEAPPPQKRYYRQRAHSNPMADHTLRYPVKPEEMDWSELYPEFFAPLTQNQSHDDPKDKKEKRAQ | binds | binds
S27D METTL1 1-75, isotope-labelled (domain or fragment, human, UniProt Q9UBP6 1-75, looked up) MAAETRNVAGAEAPPPQKRYYRQRAHDNPMADHTLRYPVKPEEMDWSELYPEFFAPLTQNQSHDDPKDKKEKRAQ | binds | 
